Results from a protein production outcome set (Wang et al. 2014).

Assay: label from the status in PepcDB records

| Sequence | protein production |
| --- | --- |
| MNTYAQESKLRLKTKIGADGRCVIEDNFFTPPFKLMAPFYPKDDLAEIMLLAVSPGMMRGDAQDVQLNIGPNCKLRITSQSFEKIHNTEDGFASRDMHIVVGENAFLDFAPFPLIPFENAHFKGNTTISLRSSSQLLYSEIIVAGRVARNELFKFNRLHTKISILQDEKPIYYDNTILDPKTTDLNNMCMFDGYTHYLNLVLVNCPIELSGVRECIEESEGVDGAVSETASSHLCVKALAKGSEPLLHLREKIARLVTQTTTQKV | failed |
| MNVLFTSVPQEDVPFYQEALKDLSLKIYTTDVSKVPENELKKAELISVFVYDKLTEELLSKMPRLKLIHTRSVGFDHIDLDYCKKKGILVTHIPAYSPESVAEHTFAMILTLVKRLKRIEDRVKKLNFSQDSEILARELNRLTLGVIGTGRIGSRVAMYGLAFGMKVLCYDVVKREDLKEKGCVYTSLDELLKESDVISLHVPYTKETHHMINEERISLMKDGVYLINTARGKVVDTDALYRAYQRGKFSGLGLDVFEDEEILILKKYTEGKATDKNLKILELACKDNVIITPHIAYYTDKSLERIREETVKVVKAFVKGDLEQIKGNFVVGPS | not failed |
| MNVLRPALLTLACMLASPVMSDDLPSLGDASSSIVSPEQEFQLGRAWLSMLRNQVDAISDPQLKDFVESSVYRLAETSDLQDHRLAFILIRDAQINAFAAPGGVIGVNGGLLLNAQTEGEYAAVLAHELGHLIQRHFARGIEAQQRMQLPVMAAMLAGIVAAAAGAGDAGIAAIAGTQAAAIQNQLRFSRQNEQEADRVGVTNMVRAGYDPRSMPNMFERLARQYRYDGKPPEFLLTHPVTESRIADTRNRAEQYPQGGKEDSLRYQQMRARTQLLFEETPGMAGKRFRAMLNDNPKLDAARYGLAISQTRIGQLNDARDNLRQLLAKAPNDVAYNLAQVELDITANRLPDADQRLKKMLAQFPSSYPLKQVRADLMLKMGKPQESEKILDDLSKARPLDPDVWNRLAEVRSLTNNAIGVHQARAEYLSLTGDYQAAIEQLDFAKRRAGGNFQLAARLDARQQEIRQQEKMVKEMFR | failed |
| MNVMQENQIKLIEHIKQAVVQAVGLEETEVPEILLEVPKDKKHGDYSTNIAMQLARVAKKAPRQIAESIVPELKKDTKLIKEVEIAGPGFINFYLDNAYLTDLVPVILTEDKKYG | not failed |
| MNVSHISAVSYYFARYIQEVLEVPVGIVVSTWGGSKIEAWMSRESIKPFSSIDLSILDNDAEVKNPTATPCVLYNGKIAPLTNFAVRGFLWYQGESNRDNADLYQSLMPAFVADLRAKWGRGELPFYFVQIAPFDYEGADGTSAARLREVQLQNMKDIPNSGMVTTMDVGHPVFIHPVDKETVGNRLAYWALAQTYGMKGFGYAPPVYKSMEIQENKIYINFYNAQRGLSPMWTSLKGFEIAGEDKVFYPAFAEIETTTARLAVSSDKVSHPVAVRYAYKNYVEASIFSIHGIPAAPFRTDNWLEHHHHHH | failed |
| MNVTPWEVEGVIDYSKLIEEFGMQPFSEVLPEIDNPHILMRRGAIFGHRDYWRIIEAMQKKEPWAVMSGFMPSGLPHFGHKMTMDEIVWHQSAGGKAFVAIADMEAHSVRGLSWEKTRELGMLYIKSIIALGLREDAVIYFQSKSSHVKDLAFELSAEVNFSELRAIYGFNSDTSLAKMFVTAIQAADILHPQLSDFGGPKPVVVPVGADQDPHMRLTRDLAARISIFSFEPVEGGVRVRSRKGAEYLSSLRDLEFDKKIYEEHMDIFGEAEEIERAVRKIEVEIGGFAFIPPSSTYHRFTTGLTGGKMSSSKPESYISLLDPPEEGAKKVMKAFTGGRATAEEQRRLGGEPDRCVVFELYSFHLIDSDEELNQIEAECREGRLLCGKCKKMAAELVKSFLKEHQEKMEAVDLSNYTIIG | failed |
| MNVWLLGRGELRRRHDDVLQLERAFLTDRTGLHFVNARSSEDLLALAESRRAEQQWPVLDAEWISPVGTDTCDDLVWQNLESTLDGRPDTFYSTAGFEAGNTLSGTGELAPGEAFLAYRFWRPVRVYAVQLRAFQADFHPGRPVYPFQVARVGVGCSLQAGMSLSYGADASAPGTSCNYRCFCTTEQQTLVFDDPMVGVYLVICLKGFPQQQLTDRLHYAAVSGIRVFGEPISSPALENELSCLISRGFILDGRDAARWLDLRSAQEHAAPMHIPEDEVI | not failed |
| MNVYDLIAEHYSGLFPLETEKLEFIQHLCPLPGRLCDAGCATGELVMGLYQKGYDICGLDLNEKMIGIAEKKASCIRKTGELMFYHADIADIMQFGKFKGVLCFGNTLPHLRDEEALRRFFGSVYRSLEEHGIFIVEVLNYDRILDDKKMDFKDKETKDFIFKRNYDFLPGGNIRFTIEFTDKQRSTVGSDFTVLHPLKRQMLLALFKQTGFKSVSAYSDYSFTESRAEDYAVVYTANK | failed |
| MNWKDKVKTTFYSCDRFVRFVIQHFIQDDCTYIASALAFTSLLAVVPLMSVGLAIFSSFPVFQGLAEPVQNFIFDNFVPATGKIVQSYLQQFTSQVSKLSIWGIVFLIFTALLVMFTIERAMNKIWRVSSSRHGVSAFLLYWAIISLAPVLLGLSLAASSYLFSMPILADHRAPYTILHYSPFFLSLIGFTFLYVVVPNCPVKIRHAFWGGLVAAILFESAKHAFAYYLIRYNTYALLYGAFATVPIFFIWVYWVWIITLLGAEISYAFSVHHQRRGGKSLDGFSHALLWLHQLWLAQQHGKGLSFNDLVDASKQPFAVDVDEMINALIYHELIHATADGHYMLSRDLSHVTLYDLTQLLPYRLPTHLELQYSKASLAEQWRAAFKRHNEELKKSLDINLEELFKKTGTVIK | failed |
| MNWRRYNGRKKLAIIVPIYNVADYLKDCLNSLLKQGVPEKELQIILVDEGSTDNSAQIAQKFVEKYPNFFELHQFENAGLGAARNRGTRLARARFITYVDSDDIVAPNSYEYMLGILERTGSQIITGNVHRFNSKKEWLNNIHARSHLGDFENTSLKEHPELIWDSTSWNKIFCLDFLKENNLYFPEGVLYEDIPMINPAFAAAKSIDIVKRMVYLWRAREGSITESSTDAKAVLDRITITEIALAGLKKYNAPNEILDILYLKSLNLGIISMLRKEKYEYISLERKQELFNSLKEYLEKFPSDTLYQAKFDKLIYFDKVLKAKTQEEFDEITSKYLKNEIGFSGYWNDAGQYVLKSDYSDLEKIVTSDDLEIHPKIEEVVFEDDSLKIQGYFYAKYSDMSAPENVKILGISALSDDGNTINEIVGEKRNFENQRITAKFGYNLNHFVKDGADFNYDYSGYELKIPLNHLEFETTNSLAFVLEVEIDGLKFEVPIKNPISGDKPRPKVGLSNAQVFSVSYKTDWSLVLSLKERSVEELYFSEDGKELRIKGNATKIALKSGKTKLPLKLVGGRVMISQAVQEKIKSFDKSVFHWWQFITYVNGKEKSIYYSGFPKNFQNDSNLEILFSNNGVATLGISYLYPLVEKLQVEENVLKLAFSLKGWMTEATKVQIVADPTLSMIWETEKMNENLYQLSLPLTLDGFSDKEWLNFHVRLTFNDGYQTNELLRWGKKEFALKNEWVSANGIGWFFRSVEQKEHGAFAIKRTADRVFQEKVGNLEYVLQEKYQNWLKEPVLNDYIMMSSFWGRNNHFNDNPEALYRYIEKNYPNMTTIIVLKDAIRSYPEYPNAKIVSYGTADYWYYLARSKYFVNNVNFTEPPRIKREEQIEIQTMHGTPLKTLGFDVLGDWKDSTYNEVLRKNGNWDYLTVPSDWVANYALKAFRVSPQIIKSGYPRNDKLFIDYKM | failed |
| MNYDRYYTCDLVNGEGVRVTLFVTGCAHACDGCHNRSTWDRKSGRPFTPEAREELLRHCASHDGLSLSGGDPLLPANRDEILALCRMFKQRYPQKNIWLWTGYDYEEVRELEILQFVDVLIDGRYRQDLPTSKPWRGSDNQRLIRLGAGSGAAVAAVGAADVIAFEA | failed |
| MNYFLMIILGVLGAESRFAIELTIDNSAYPYGTLIINMIGCFLLGFMYYFFVEAKKTINQLVAVVSTGFVGSFTTFSTFELEIFKMFQLDQYLKAISYFFVTMLSGLLFVFLGYCLSKLIIIKRKENK | failed |
| MNYKLTLHPGSNPVEEFTSIPHGVTSLDLSLNNLYSISTVELIQAFANTPASVTSLNLSGNSLGFKNSDELVQILAAIPANVTSLNLSGNFLSYKSSDELVKTLAAIPFTITVLDLGWNDFSSKSSSEFKQAFSNLPASITSLNLRGNDLGIKSSDELIQILAAIPANVNSLNLRGNNLASKNCAELAKFLASIPASVTSLDLSANLLGLKSYAELAYIFSSIPNHVVSLNLCLNCLHGPSLENLKLLKDSLKHLQTVYLDYDIVKNMSKEQCKALGAAFPNIQKIILVDKNGKEIHPSHSIPISNLIRELSGKADVPSLEHHHHHH | not failed |
